Measured values taken from the supplement of paper PMC9112550, “Optimization of the antimicrobial peptide Bac7 by deep mutational scanning” (BMC Biology, 2022).

What follows are sequences tested on Escherichia coli TOP10 (assay: shrunken log2 fold change of peptide-encoding DNA abundance (4.5 h post-induction vs induction); higher = less antimicrobial activity (less host growth inhibition)). Conditions: time post-induction: 4.5 h; library: site-saturation at positions 5, 18, 19, 20.
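Further: peptides expressed intracellularly from a pBAD plasmid library in pooled LB shake-flask culture, induced with 0.3% L-arabinose, DNA abundance read by NGS, three biological replicates, DESeq2 with apeglm shrinkage.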

Sequence	shrunken log2 fold change
RRIRQRPPRLPRPRPRPNMHPRP	-0.34
RRIRGRPPRLPRPRPRPKMRPRP	1.33
RRIRARPPRLPRPRPRPFKIPRP	-0.0575
RRIRWRPPRLPRPRPRPAVGPRP	0.229
RRIRQRPPRLPRPRPRPGQWPRP	0.00718
RRIRSRPPRLPRPRPRPRWTPRP	0.0635
RRIRIRPPRLPRPRPRPACPPRP	-0.146
RRIRQRPPRLPRPRPRPMFYPRP	-0.503
RRIRVRPPRLPRPRPRPCLHPRP	-0.947
RRIRCRPPRLPRPRPRPLPLPRP	-0.0103
RRIRPRPPRLPRPRPRPINRPRP	-0.11
RRIRKRPPRLPRPRPRPAMKPRP	0.141
RRIRGRPPRLPRPRPRPLYSPRP	0.225
RRIRARPPRLPRPRPRPKFEPRP	0.574
RRIRCRPPRLPRPRPRPWRHPRP	-0.126
RRIRARPPRLPRPRPRPGMGPRP	0.639
RRIRCRPPRLPRPRPRPIEPPRP	0.159
RRIRPRPPRLPRPRPRPHVVPRP	-0.136
RRIRCRPPRLPRPRPRPRMHPRP	0.066
RRIRKRPPRLPRPRPRPSQMPRP	0.247
RRIRWRPPRLPRPRPRPLPEPRP	0.265
RRIRARPPRLPRPRPRPTPWPRP	0.563
RRIRYRPPRLPRPRPRPGKAPRP	-0.00206
RRIRPRPPRLPRPRPRPDKAPRP	0.00631
RRIRQRPPRLPRPRPRPGGSPRP	-0.141

Sequence	shrunken log2 fold change
RRIRPRPPRLPRPRPRPEHWPRP	0.226
RRIRSRPPRLPRPRPRPIFFPRP	0.124
RRIRYRPPRLPRPRPRPPHCPRP	-0.396
RRIRKRPPRLPRPRPRPFYNPRP	-0.695
RRIRSRPPRLPRPRPRPHQRPRP	-0.249
RRIRRRPPRLPRPRPRPRTYPRP	-0.213
RRIRVRPPRLPRPRPRPWSFPRP	-0.225
RRIRYRPPRLPRPRPRPVVVPRP	0.00571
RRIRHRPPRLPRPRPRPVASPRP	-0.122
RRIRPRPPRLPRPRPRPQFYPRP	-0.592
RRIRARPPRLPRPRPRPKIWPRP	0.53
RRIRTRPPRLPRPRPRPRCHPRP	-0.334
RRIRWRPPRLPRPRPRPAPRPRP	1.12
RRIRIRPPRLPRPRPRPWTMPRP	-0.163
RRIRDRPPRLPRPRPRPIMRPRP	0.225
RRIRWRPPRLPRPRPRPHQTPRP	0.0649
RRIRLRPPRLPRPRPRPFDWPRP	-0.133
RRIRCRPPRLPRPRPRPIKIPRP	-0.436
RRIRQRPPRLPRPRPRPSEIPRP	-0.0356
RRIRGRPPRLPRPRPRPILHPRP	0.0775
RRIRKRPPRLPRPRPRPWSCPRP	-0.22
RRIRSRPPRLPRPRPRPEKPPRP	0.014
RRIRNRPPRLPRPRPRPSEHPRP	-0.159
RRIRTRPPRLPRPRPRPQRVPRP	-0.0793
RRIRNRPPRLPRPRPRPIEDPRP	-0.0858

Sequence	shrunken log2 fold change
RRIRTRPPRLPRPRPRPYVVPRP	-0.738
RRIRFRPPRLPRPRPRPVLNPRP	-0.282
RRIRIRPPRLPRPRPRPLFPPRP	-0.42
RRIRKRPPRLPRPRPRPHRSPRP	0.0882
RRIRFRPPRLPRPRPRPDSTPRP	-0.596
RRIRNRPPRLPRPRPRPEMFPRP	0.0119
RRIRTRPPRLPRPRPRPATQPRP	1.54
RRIRPRPPRLPRPRPRPNCCPRP	0.187
RRIRWRPPRLPRPRPRPHATPRP	0.816
RRIRSRPPRLPRPRPRPPHPPRP	0.325
RRIRERPPRLPRPRPRPVAAPRP	0.247
RRIRFRPPRLPRPRPRPHSWPRP	-0.0147
RRIRVRPPRLPRPRPRPHKEPRP	0.0216
RRIRRRPPRLPRPRPRPIECPRP	-0.00663
RRIRYRPPRLPRPRPRPYSFPRP	-0.106
RRIRFRPPRLPRPRPRPAFVPRP	-0.028
RRIRPRPPRLPRPRPRPREAPRP	0.44
RRIRCRPPRLPRPRPRPNRCPRP	0.053
RRIRLRPPRLPRPRPRPDLPPRP	-0.0128
RRIRGRPPRLPRPRPRPIRVPRP	-0.189
RRIRNRPPRLPRPRPRPFWTPRP	-0.132
RRIRLRPPRLPRPRPRPGCFPRP	0.269
RRIRGRPPRLPRPRPRPSLNPRP	0.105
RRIRARPPRLPRPRPRPFWPPRP	0.412
RRIRWRPPRLPRPRPRPNMNPRP	-0.345

Sequence	shrunken log2 fold change
RRIRKRPPRLPRPRPRPHFFPRP	0.101
RRIRSRPPRLPRPRPRPLVPPRP	-0.0319
RRIRPRPPRLPRPRPRPNVPPRP	-0.11
RRIRFRPPRLPRPRPRPQTSPRP	-0.449
RRIRLRPPRLPRPRPRPCHGPRP	-0.0309
RRIRQRPPRLPRPRPRPEQSPRP	0.142
RRIRHRPPRLPRPRPRPTLPPRP	-0.00384
RRIRERPPRLPRPRPRPMIKPRP	-1.07
RRIRARPPRLPRPRPRPHMTPRP	-0.0862
RRIRNRPPRLPRPRPRPVWPPRP	0.199
RRIRYRPPRLPRPRPRPMGEPRP	0.0325
RRIRHRPPRLPRPRPRPEPKPRP	-0.0206
RRIRGRPPRLPRPRPRPYDYPRP	-0.15
RRIRLRPPRLPRPRPRPYVKPRP	-0.182
RRIRCRPPRLPRPRPRPKAQPRP	0.262
RRIRHRPPRLPRPRPRPFLMPRP	-0.456
RRIRNRPPRLPRPRPRPKHTPRP	-0.0718
RRIRLRPPRLPRPRPRPQEIPRP	-0.0701
RRIRRRPPRLPRPRPRPYTSPRP	-0.313
RRIRPRPPRLPRPRPRPLQQPRP	0.176
RRIRVRPPRLPRPRPRPPTWPRP	0.0832
RRIRRRPPRLPRPRPRPPVKPRP	0.369
RRIRARPPRLPRPRPRPDKMPRP	0.104
RRIRMRPPRLPRPRPRPACTPRP	0.623
RRIRARPPRLPRPRPRPQMVPRP	-0.0332

Sequence	shrunken log2 fold change
RRIRVRPPRLPRPRPRPFINPRP	-0.192
RRIRKRPPRLPRPRPRPPVWPRP	0.448
RRIRFRPPRLPRPRPRPSCLPRP	-0.502
RRIRCRPPRLPRPRPRPGNNPRP	-0.47
RRIRYRPPRLPRPRPRPYFAPRP	-0.796
RRIRIRPPRLPRPRPRPICHPRP	-0.326
RRIRERPPRLPRPRPRPLAMPRP	-0.246
RRIRLRPPRLPRPRPRPLSPPRP	0.0444
RRIRNRPPRLPRPRPRPDEVPRP	-0.00973
RRIRARPPRLPRPRPRPCKDPRP	0.0511
RRIRSRPPRLPRPRPRPYMAPRP	-0.539
RRIRQRPPRLPRPRPRPAMWPRP	0.579
RRIRCRPPRLPRPRPRPPMYPRP	-0.156
RRIRMRPPRLPRPRPRPMIHPRP	-0.106
RRIRGRPPRLPRPRPRPMHVPRP	0.0539
RRIRARPPRLPRPRPRPPQDPRP	1.13
RRIRRRPPRLPRPRPRPCCIPRP	-0.179
RRIRWRPPRLPRPRPRPKNHPRP	-0.248
RRIRHRPPRLPRPRPRPDHCPRP	0.0278
RRIRDRPPRLPRPRPRPKSEPRP	0.0995
RRIRFRPPRLPRPRPRPCFGPRP	-0.0611
RRIRFRPPRLPRPRPRPFWWPRP	0.398
RRIRLRPPRLPRPRPRPHKGPRP	-0.0262
RRIRWRPPRLPRPRPRPMWQPRP	0.016
RRIRYRPPRLPRPRPRPAYEPRP	-0.184

Sequence	shrunken log2 fold change
RRIRMRPPRLPRPRPRPGISPRP	0.0451
RRIRSRPPRLPRPRPRPHASPRP	0.188
RRIRRRPPRLPRPRPRPGFAPRP	0.315
RRIRARPPRLPRPRPRPIDAPRP	0.0272
RRIRERPPRLPRPRPRPGWQPRP	0.0683
RRIRTRPPRLPRPRPRPQAYPRP	-0.629
RRIRGRPPRLPRPRPRPFCVPRP	0.392
RRIRWRPPRLPRPRPRPDWDPRP	0.243
RRIRHRPPRLPRPRPRPNPAPRP	-0.0505
RRIRLRPPRLPRPRPRPHVPPRP	0.0978
RRIRHRPPRLPRPRPRPHWVPRP	-0.00951
RRIRGRPPRLPRPRPRPKNHPRP	0.179
RRIRVRPPRLPRPRPRPNVTPRP	-0.554
RRIRQRPPRLPRPRPRPWVDPRP	0.0234
RRIRTRPPRLPRPRPRPCKVPRP	-0.233
RRIRTRPPRLPRPRPRPHSYPRP	-1.23
RRIRERPPRLPRPRPRPGEKPRP	-0.00142
RRIRQRPPRLPRPRPRPMQPPRP	0.0113
RRIRERPPRLPRPRPRPAELPRP	-0.187
RRIRIRPPRLPRPRPRPQMVPRP	-0.186
RRIRRRPPRLPRPRPRPCQKPRP	0.0185
RRIRPRPPRLPRPRPRPKKAPRP	0.129
RRIRTRPPRLPRPRPRPFAVPRP	-0.0779
RRIRYRPPRLPRPRPRPSPHPRP	-0.49
RRIRWRPPRLPRPRPRPMKGPRP	-0.363
